Test results as given in article PMC7797366.

How the values were obtained:
2HDLL = biological target: T1, 2HDLL (Mus musculus, UniProt P61372;P50481); test: SEC-MALLS, SAXS
T1 chain: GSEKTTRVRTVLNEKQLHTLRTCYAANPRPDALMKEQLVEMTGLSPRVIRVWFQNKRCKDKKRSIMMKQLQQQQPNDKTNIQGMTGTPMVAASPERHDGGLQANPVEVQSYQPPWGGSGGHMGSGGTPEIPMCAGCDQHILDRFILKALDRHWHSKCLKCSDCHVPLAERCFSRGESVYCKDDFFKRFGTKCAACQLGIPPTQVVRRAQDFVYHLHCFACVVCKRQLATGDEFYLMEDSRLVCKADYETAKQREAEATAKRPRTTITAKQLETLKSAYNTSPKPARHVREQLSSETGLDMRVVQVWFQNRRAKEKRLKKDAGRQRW

2HD = biological target: T2, 2HD (Mus musculus, UniProt P61372;P50481); test: SAXS
T2 chain: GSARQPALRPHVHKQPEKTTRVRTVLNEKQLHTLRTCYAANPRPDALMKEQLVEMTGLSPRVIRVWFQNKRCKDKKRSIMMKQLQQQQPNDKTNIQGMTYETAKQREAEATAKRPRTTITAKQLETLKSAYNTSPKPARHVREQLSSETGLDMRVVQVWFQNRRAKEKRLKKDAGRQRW

LLHD3 [1] = biological target: T3, LLHD3 (Mus musculus, UniProt P61372;P50481); test: EMSA
T3 chain: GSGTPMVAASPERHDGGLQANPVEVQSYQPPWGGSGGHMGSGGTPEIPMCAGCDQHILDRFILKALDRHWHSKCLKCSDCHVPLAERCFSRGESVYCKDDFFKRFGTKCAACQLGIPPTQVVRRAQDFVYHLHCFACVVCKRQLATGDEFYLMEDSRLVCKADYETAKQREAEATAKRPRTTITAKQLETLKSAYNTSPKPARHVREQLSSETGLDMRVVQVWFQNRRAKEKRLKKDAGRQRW

LLHD3 [2] = biological target: T3, LLHD3; test: EMSA

B1: M100 20-mer (SAXS) (dsDNA)
DNA 1: CCGCATTAGCCAAATTACGC
DNA 2: GCGTAATTTGGCTAATGCGG
Does B1 bind (2HDLL)?
Result: binds

Does B1 bind (2HD)?
Result: binds

B2: M100 (EMSA) (dsDNA)
DNA 1: CGGCCATTAGCCAAATTACGGC
DNA 2: GCCGTAATTTGGCTAATGGCCG
For B2, which Kd (LLHD3 [1]) is on record?
The Kd was 1000 nM.

B3: ISL1GA (dsDNA)
DNA 1: ACCGCGTAATATCTG
DNA 2: CAGATATTACGCGGT
Does B3 bind (LLHD3 [2])?
Result: no binding
